# Molecular target: cardiac troponin T (cTn-T) (UniProt P45379)
# Assay: electrochemical aptasensor
# Details: thiol (end not stated); Protein in 10 mM PBS pH 7.4, 30 min on BSA-blocked electrode, PBS wash; read in 0.10 M KCl with 5.0 mM K3/K4[Fe(CN)6]; temperature not stated
sequence,measurement,value
CGTGCAGTACGCCAACCTTTCTCATGCGCTGCCCCTCTTA [cTn-I aptamer (Jo et al.)],binding signal (% normalized response),< 5

# — paper PMC9599711
